Reference: the nanobody polyreactivity screen of Harvey et al. (2022)

Test: yeast display, Sf9 membrane polyspecificity reagent, FACS + sequencing; frameworks hold sequencing errors
Procedure, shortened: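 Using colony PCR, genes from sorted yeast display clones were amplified, then sequenced on MiSeq at 2 × 250 and filtered by CDR length. The clones had been stained with 10% biotinylated, detergent-solubilized Sf9 membrane reagent for 1 hour at 4 °C and sorted by FACS into low and high (top ~1%) gates on anti-HA and streptavidin fluorescence. Polyreactivity labels come from the gate of origin.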

Sequence	polyreactivity (PSR sort gate)
QVQLVESGGGLVQAGGSLRLSCAASGRTFYRYAMGWYRQAPGKERELVATITLRGGRTYYADSVKGRFTISRDTAKNTVYLQMNSLKPEDTAVYYCAKYHWRLSFSRYPYDYWGQGTQVTVSS	high polyreactivity
QVQLQDSGGGLVQAGGSLRLSCAASGYIFGSGSMGWFRQAPGKERELVATINNGSSTYYADSVKGRFTISRDNAKNTVYLQMNSLKPEDTAVYYCGVFLYRLTFFYYWGQGNQVTVSS	high polyreactivity
QVQLVESGGGLVQAGGSLRLSCAASGRISPNNAMGWYIPAPGKERELVAAITASGGTTYYADSVKGRFTISRDNAKYTVYLQMNSLKPEDSAVYYCAAAVWYRGWYRYDYWGQGTQVTVSS	low polyreactivity
QVQLVESGGGLVQAGGSLRLSCAASGIIFGRNVMGWYRQAPGKERELVAAITRRGVNTYYADSVKGRFTISRDNAKNTVYLQMNSLKPEDTAVYYCAATWWQYDQGLHRYDYWGQGTQVTVSS	high polyreactivity
QVQLVESGGGLVQAGGSLRLSCAASGSTFYGYGMGWYRQAPGKERELVAAITGSGDTTYYADSVKGRFTISRDNAKNTVYLQMNSLKPEDTAVYYCNARWLAEYDYWGQGTQVTVSS	low polyreactivity
QVQLVESCGGLVQAGGSLRLSCAASGRIFSDYAMGWYRQAPGKERELVATITSGDSTNYADSVKGRFTISRDNAKNTVYLQMNSLKPEDTAVYYCNADRFADYDYWGQGTQVTVSS	low polyreactivity
QGQLVESGGGIVQAGGSLRLSCAASGFNFWQYAMGLYRQAPGKERELVAAITSSGTSTYYADSVKGLFTISRDNAKNTVYLQMNSLKPEDTAVYSCAADLGYYDLYYWGQGTQVTVSS	low polyreactivity
QVQLVESGGGLVQAGGSLRLSCAASWYTMGWYRQAPGKERELVAAITGGGSTNYADSVKGRFTISRDNAKNTVYLQMNSLKPEDTAVYYCAKTRVLLNSYSYNIIYDYWGQGTQVTVSS	low polyreactivity
QVQLVESGGGLVQAGGSLRLSCAAYGITFRVNPMGWYRQAPGKERELVAAISRGGGSTSYADSVMGRFTISRDNAKNTFYLQMNSLKPEDTAVYFCAREPLAYYVARYDYWGQGTQVTVSS	high polyreactivity
QVQLVESGGGLDQAGGSLRLSCAASGSIFASNAMGWYRQAPGKERELVAAINSGDSTNYADSVKGRFTISRDNAKNTVYLQMNSLKPEDTAVYYCARGLEERYDYWGQGTQVTVSS	low polyreactivity
QVQLVESGGGIVQAGGSLRLSCAASGFTFFIYTMGWYRQAPGKERELVAAIRSRTGSTYYADSVKGRITISRDNAKNTVYLQMNSLKPDDTAVYYCAATRVRSASYSIEYDYWGQGTQVTVSS	high polyreactivity
QVQLVESGGGLVQAGGSLRLSCAASGSTFYAYAMGWYRHAPGKERELVAAIDSGGSTYYADSVKGRFTISRDNAKNTVYFQMNSLKPEDTAVYYCAVRHRYTRAYWGRDYWGQGTQVTVSS	low polyreactivity
QGQLVESGGGLVQAGGSVRLSCAASRITLGSNAMGWDRQAPGKERELVAAITSGSSTYYADSVKGRFTISRDNAKNTVNLQMNSLKPEDTAVYYCAADPTSYSYEYNYWGQGTQVTVSS	low polyreactivity
QVQLVESGGGLVQAGGSLRLTCAASGIIFGKYTMGWYRPAPGKERELVADISKRGGSTYYADSVKGRFTISRDHAKNTVYLQMNSLKPEDTAVYNCAAERISSYDYWGQGTQVTVSS	high polyreactivity
QVQLVESGGGFVQAGGSLRLSCAASGSIFWLYDMGWYRQAAGKVRELVAAISWSTGGTYYADSVKGRFTISRENAKNTVYLQMNSLKPEDTAVYYCNAETYDQYNYWGQGTQVTVSS	low polyreactivity
QVQLVESGGGLVQAGGSLRLSCAASGSIFGRNDMGWYRQAPGKERELVAAISGDTTTNYADSVKGRFTISRDNAKNTVYLQMNSLKPEDTAVYYCNRYSGGRWYPEYYYWGQGTQVTVSS	high polyreactivity
QVQLVETGGGLVQAGGSLRLSCDASGRIIRWYALGWYRQAPGKERELDAAITRSGSTFYADSVKWRFTISRDNAKNTVYLQMNSLKREDTADYYCNTCRWLYDTRYQFDEFDYWGQGTQVTVSS	high polyreactivity
QVQLVESGGGLVQAGGSLRLRCAASGITFPNYAMGWYRQAPGKERELVAAISSGGSTTYADSVKGRFTISRDNAKNTVYLQMNSLKPEDTAVYYCNADISAHYVIGVPTGYYWGQGTQVTVSS	low polyreactivity
QVQLVESGGGLVQAGGSLRLSCAASGFTFSYYAMGWSRQAPGKERELVAAITTSGGRTYYADSVKGRFTISRDNAKNTFYLQMNSLKPEDTAVYYCAATYPRYYSGEFDYWGQGTQVTVSS	high polyreactivity
QVQLVESGGGLVQAGGSLRLSCAASGVTFQFYARGWYREAPGKERELVAAISRRGGRTDYADSVTGRFTISRDNAKNTAYLQMNSLKPEDTAVYYCARDPGAFEYWGQGTQVTVSS	high polyreactivity
QVQLVESGGGLVQAGGSLRLSCAASGSTFYPNAMGWYRQAPGKEREFVAAITWSGGRTYYADSVKGRFTISRDNAKNTVYLLMNSLKPEDTAVYYCAVGGNSRRYWGQGTQVTVSS	high polyreactivity
QVQLVESGGGLVQAGGSLRLSCAASGFIFARNTMGWYRQAPGKERELVAAITKSGGSTYYADSVKGRFTISRDNAKNTVYLQMNSLKPEDTAVYYCAARTYTLRGVYFSGYNYWGQGTQVTVSS	low polyreactivity
QVQLVESGGVLVQAGVSLRLSCAASGRNFLWYVMGCYRQAPGKERELVAAISSGGRTYYADSVKGRFTSSRDNAKHTLYLQMNSLKPEDTAVYYCAAVRRYLKAAYGYWGQGTQVTVSS	low polyreactivity
QVQLVESGGGLVQAGGSLRLSCAASVSTFAVYAMGWYRQAPGKERELVAAISSSGDRTFYADSVKGRFTISRDNAKNTVYLQMNSLKPEDTAVYYCNVPYKYRRAYDGGYDYWGQGTQVTVSS	high polyreactivity
QVQLVESGGGLVQAGGSLRLSCAASGSIFRTYAMGWYRQAPGKERELVAAISQSGGSTYYADSVKGRFTISRDNAKNTVYLQMNSLKPEDTAVYYCNKYFTRRQSAVSLSPGKFDYWGQGTQVTVSS	high polyreactivity
QVQLVESGGGLVQAGGSLRLSCAASGLIFTYYAMGWYRQAPGKERELVAAISSSGVNTYYADSVKGRFTISRDNAKNTVYLQMNSLKPEDTAVYYCAAELQPSPVGGIIQYGFDYWGQGTPVTVSS	low polyreactivity
QGQLVESGGGLVQAGGSLRLSCAASGRIFYAYAMGWYRQAPGKERELGAAITSSGGRTYYADSVKGRFTISRDTAKNTVYLQLNSLKPEDTAVYYCAAYDYWGQGTQVTVSS	low polyreactivity
QVQLVESGGGLVQAGGSLRLSCAASGRTFSRYAMGWSRQAPGKERELVASITSRGGSTYYADSVKGRFTISRDNAKNTVYLQMNSLKPEDTAVYYCNVKPTYSTRYWEDYWGQGTQVTVSS	high polyreactivity
QVQHEDSGGGLVQAGGSLRLSCAASGRIFSFYTMGWYRQAPGKERELVAAISGSGGSTYYADSVKGRFTISRDNAKNTVYLQMNSLKPEDTAVYYCARRRQRGGVNYWGQGTQVTVSS	high polyreactivity
QDQRVESGGGLDQAGGSLRLSCAASGSIFLVYAMGWYRQAPGKEMEFVAAITWSGGSTYYADSVKGRFTISRDIAKNTVYLQMNSLKPEDTAVYYCAVEIWIPTWYGLSGEYDYWGHGTQVTVSS	low polyreactivity
